Experimental data published in the NTF2 design screens of Basanta et al. (2020).

Test: protease stability score; higher = more stable; yeast display proteolysis, trypsin and chymotrypsin;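 note: relative to predicted unfolded state with 0 unfolded-like and 1 meaning tenfold more protease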

Sequence | protease stability score
SHVEELSHEVTRWVDIALQTGDERVIDEYLDPNARIDVGDKHFIGREEMSEFYSEFSRRVKNLKLSRYHKKDERIIGNKVILHGKLNVNINGRSHEIDTEIVSMKVNGRWLVEKEIVN | 0.302
DEEEELTKRWIDHLLRLWNTGDEHHFLKMADPHVRIEQGDKEHIGREEMYRWLQQFKNIRLHIDDIDIQGDFLNIDGYINFNGVHREAKVHIRVINGKLHSIIIRIK | 1.3
DEDTKHDEEMFRLVLHLLRTGDEEKLTELADPNVRLEVDIDGRRDTYHGREEMLKWLQELLKRYKNMTIKVHRVSVVNGKAHMDGITKVGDKEFKELRIWVVIDGKIRTIKIEIL | 2.27
DEDEEELEKMLHKMLESLRTGDWKDITENLDPHTRFNINGVDFHGRELAHEVLHEWFERYKNIRIFLNTSRTINGRVELILRIEIGDKEEEMRILVIKVDGRWFMDTVDVRTR | 2.13
DEDEESNKLFEDLLSEAIRTGDWRMLRHLADPNVRVDINGKKLVGWEELMRFMHELRIDRHHSRIHDSDSQGDKMHIDVRLEIDGNINGRKHRFRIESELILVKVNGRWLLEESRVG | 1.67
DEIEHMIHEIFERWIKAWLTGDWRTIEKLFDPDVRVEINGVEIIGRELMSKVLIRKYDEMRSRVKLESEHAQGDKAHFNVNIILHIGDKTIERRSRIHIRIYNGRIHEVRVEED | 2.4
SEEEHLMRELLEVFLRNMLTGDWDKTAKLADPDTRFRAHVGDFKVERHGMEQFIKWLKDEREQWRIRRIHIDRIELVDGVIRVEGTIDVEYDGVREVERSELILVIIDGRIHEVEVHIR | 1.44
SEVEHALHEILEILVKIMKTGNFEDLIRNFDPHVQLEFNGKRYHGREAEHFLRERFDHNRHHHVHEVRVQGDKVELHGKLIGEFNGREEEVHIDIIAHKINGRWIFKSVHFR | 2.15
DEEEKAVKHAVERFVESTQTGNEHKLNELMDPNVRIDFNGVELIGREWFSKLLSEIRSDRFHIHDIRLQGEKADNDTREKGHVDGRTTEMTVRLIWIKFDGKWRLETVIFQ | 1.01
DEDMDISKHWAELWMKLEKTGDEEELRKLMDPHARIDFNGVDIHGMEFWLELLKREKDKFKNVKITLEEFRIYGDYVHFHVIIHQGDYHLRIEITIIVVNGRHKELIIRIK | -0.059
DEEEKSLREMMRQFVEHLETGNFEEIEKMADPNARVRIDGRDFVGREEWHKMFIHLHKHLRLEDSHIHHIDFQGNKIHIHGHIHVVVDGKREHRHFHVIIRKVNGRWTIEEMYIE | 1.06
DEDRKLFTEATHRLNNVLETGDEDSLLRLMDPNTRYKVNGVELIGREMVKHMFRILMHHWRVKSHDYHDIEIQGDWAVIDSRVDGVIDGRRTHTQLRVESIKIDGKWFDHEVTLE | 0.398
DKEEEHMREMVRLYQHIRLTGNEEVIRNLADPTMRFDLDFEEKRVTAIGREQYLRVTDKLKKDLGLENIEVRVKEMEAFDGVIHINGHERFNGRSYDTHIWLVIVNGRWEFIRIEIR | 0.116
SEEERMTHEATRDLIETILTGDENILRKLADPNMIINVRQGEKDIRIHGRHDYIRWVKLLGVDHVQVRDIHFQGDKATIHLEVEVNGRSINMIIIMRKVDGRWLITETREHHL | 1.09
SEENELAERFFKELRDHFETGDEDVLDEMADPNMKLHINGRNFHGMHVYSKLARWLVDHWRSEFKVRRIEVQGNKIIIDSQLTLHIDGQRIIHDTRMESEKVNGKWLLRQFIVV | 1.71
DETKQETDRLVKMMLHAITTGDEKFIHHLIDPNVRLEVGDKSFHGREDAFEMLRKEWEDLGVKVYKPETYKSQGDWVHFHGKEHVGDKEIELNIHIHVVDGKIKFIRIEIH | 1.2
SDLDHQARRALEETFKAFETGDEHTWNRLVDPHVRLNVNGQEFHGMELIREWFKQDRDELRLKTIELKRVSVQGDYVHIDSTYYYEYNGQHRILEVHIHAVKFDGRWVVKRIHIH | 0.662
SELDRDVEHVLKELAKAMRTGDEEMLHDMIDPNARMIVDGKNLHGREQIWKFFTELRVDSRRYEVKHSEIQGNKLEIDGRTRIIIIVNGREIDRETHTEIILLKINGKWLMHSVRIE | 1.07
TEEDRFAHEFVRKWIENFLTGNEEKLHELADPNMKIDVGDKHLHGMEEWTRFLRDLGWRTEIRLRDIEVQGNKAFIRGEVHISINGRTDKTETRIILHVVNGRLKEVYVHHQ | 1.53
SEEDKEVKFFMERLNHLLLTGDEELIMEMLDPNARMTINGVDTHGRETLSKLWTDKLRHLRLKQIHIHDWRSINGRADNKGHERGFVGDKEDNWESELLFVFVNGRLKSISVHLR | 1.21
TELEHDVIHAFNLIVWAIRTGDEKTYHRLVDPRVQIDIGDKHLHGREDFTRLLREIRVTVRDWDFEHVRFQGDYAILHSRLDIEINIDGRIERIDVHQILFVEKINGRWRHTRESRH | 0.366
TELEKDAKEFFRIVIEAWLTGDEQKIEHLADPHVRLDINGVELHGWEELIRRLHDELHRYDYMQINVRRVEIQGEKIHVDGELELRFDGKIYRHEVEINILVVNGKNKEQKFVKK | 0.243
DEEEEKLRELIRIFIEDWKTGDFDSLAHLLDPNARLDIHINGVHLHYHGREKILEFLWRWFERFKNARVELKRIRIVNGRSEIDSETTFNGRSSDMEIDIVIINGRVRSERFKVG | 1.47
TDLKEYVERMLELLRKAIETGDETTLTKLVDPHVRLEVNGREFHGWKFWHMIVREIRMRDLELHHVEIQGDKMEVDGTLHLEINGKDDYRKVRLIAEKFDGRWVFTSVHFE | 1.72
DEDEKRWFDRADEVRRQWETGDFERHLRLMDPHVRMEVQQGDKHEEYHGRENVMEIIRQELERVKNVKLEVTDLEIQGEKVILRLKLHVNGRDIDIYIDIVFINGRIKHIRIRIQER | 1.38

Sequence | protease stability score
SDEKKRLDDLAMTFLTLWMTGDWDHFARQADPHVRSDINGKELHGREIFVNFLREEMTRLGVDHFELHSVTVIDGKVHFDGEVDVNGVRHKTILWSVIFNGRIKSQEEEIR | 1.15
DEREKFLEEMVEEWFRNWVTGDEDRFEELADPDVRFHIGDKDSHGREAFEELMKRMGFKYKHIELHDVHIQGDKSHIDGHVQGQVNGQERDSHVHLDLVVVNGRLRTMEVRFR | 1.44
TEQEHDMERLIEILIHSWRTGNEDELRRQIDPNARIDIGDKHFHGREFAIKHLSELRIKDFKLQHLDVQGDKVNVEGHLEGEINGRDDRYRYWIFVSKVNGQWFVERFHIV | 1.5
EEDEEITKLYLEIILHIWLTGNEEELLRMFDPNARVDINGVINIGREDLLKRFHEHWRKYGAKHIRVRDIKFHIFNGVIYINLHLELIVGDKTFHVHLHMRSRKVDGRWHTHEFEERIN | 1.69
DVEEEYRHVMEEVHKHAMKTGDEQDILHLMDPNARFEVDGKIYIGREWLRRFVDILGVSRIHLHDLKIKDYRIIGNKIEVDGNIDGIVGNKRHEIDSHVISEKIDGRWIIKREKHR | 0.324
SEDEEAAHRFLQMFLSTSHTGDEKESRELADPHVRIDIDGQKHHGRHEWVKVFRHLRIHNIEIKDYHVIDGRLRLDYKVDLEVGDKKIEHRLHIDVEKIDGRWEIQRVHLI | 1.58
SEEDHELRIASEIMIKTTRTGDERLIKELFDPNTQIDFDGQELHGWKFVRRLDEEMRMHRSETKSYERYGDKIVIDIEVDVEFNGVRTRIRVTIIARKVNGRWLNEVMIIH | 1.14
SEHDEELRHASEKLWHDILTGDWKSIKELADPNVRVIIWQGEKEINLHGREEVTRVIKEMGFKHTHIEHQSTINGRMIVDNHSNINGKRVHLHFVIEKINGRWFLHEMRIEFE | 1.47
SEEEKLTREFAEMWRHTIETGDEEEMWRMADPNVRVDFDGKELHGRELFQEHFRKLGVDHFIVRRIHVQGEKLRIDGSHIYNGQHIHTELISQKVNGRWIIDQVKVH | 1.36
DELTEIMLRIAQLILTILLTGNEDHFKRLFDPNVRLTINGVDFVGREWIVHFMRNLTDELRIKDNKIEDIRVQGDKAKVDSRLDGEVDGQHMELRTSYVLIKIDGRWSVHSVEFR | 1.26
SEDEEFLEWTMRLYTKAHATGDEETLTDLMDPNTRLDINGVIWIGREFVRKHHEDLGAKHSRMDLRIRDRDSINGRLIVHTRFRLKIHIGDKDISIEHHTTLYMIKIDGRWHIREIEIR | 1.09
SEHHKLLEDFLHLMQEALHTGNEDFIAELADPNVRINWNGKETHGRENLRRMLHEWRERWGIDRIEFHMKSISVQGDKIDLEMQVHINGRHETMHVRITVINGRLKDVRYELR | 1.66
DEQERRSRELLHLWLELFETGDEDNMQEFLDPNVRLIIIQGDNQVNHHGWENMVKIAKFYKNMQIKVHDVEFQGDKVIMDTRLLVDGRLRHTTVILDIVNGVIKHVEIRYS | 1.69
SEDEEMARRFFEHLLHLWRTGDEEILRNLVDPDTQMQIGDKHLHGRDAVEHMIRRIDHVEVRKVRMREIRVQGDYVVIHVELDGTQEVNGKRIEQHIEFTVFVHKVDGRWIWRSIYQI | 1.37
DDEREEAKRAIEDLVRDLETGNWKHLHEFLDPNVRIRVGDKDIHGREEATHHLRRLHEKFKNLKVIIEHVDIVGNKIIEHGHIEIGDKSMEVEIIIIKINGRWYIKEIHIK | 1.6
DEHHRLARDFWKMLADILKTGDEEIFRDLADPDTRMIQGDKLYHGRELISRELVRQVKEWRLHDFELHHIDEVNGRLLVDSRLVGHFDGRHYLMHVRIFMHKVDGRWVLHEMHYE | 1.38
SEDHREARHAVHVFLHLLETGDEDHLVKLLDPNVRYVIGDKTHHGWEELERIRNKFKNIRITLRDRDFHIFDGRLLVLIRGELEFDGRRVDFEVITYIEKINGRWIVSEFRIHLN | 1.5
DEDEESTKHALELWEESMETGDEHDLKHLVDPHARLEVGDKTYHGREAVHVLFRRIDHLHDIRIDHVEVQGNKIHMDVTLNYYFNGRVEEEKFEILILKINGRWRIKSMRIK | 1.78
DEIEEDMRKSIEDVIKAHLTGDEKTYRRLFDPHVRIDIDGVDFHGWEESRRMLQEIRISIEDWKIERMEIQGDKIHIDSRVDLTVYIDGKKERDTIERHIILVKFDGRWTIESVDFR | 1.37
DEEKRHSDEIIEEWVRSLITGDEKRIRELHDPTTLLNNENEKYHGMEIATELRRRIRENMGIKHSEVRVHDIEWQGDKITIYGRLILRFNGKEVEHELLIVATKINGRWVLRSMRIE | 1.48
DHEEDLSHEFLERLVSAWRTGDEHTWNRLADPNYKLEINGRHSVGREDSLRVIKDIRDKYKGLTIDDVTIKDVRIFDGVIRAKMVLQLNFNGVNIEEEVDIVIEKVDGRWFLKFEIVK | 0.653
SEEKKQSDEAWELYIKSVETGDFRMLHELLDPNVKIHIGDKDIHGREYIMEHMLKFGVTTQSRFEVKDIKLQGDFVIIHGHIRSIFHFNGRTLRVEHDVEIFATKFDGRWWTHSVEVN | 1.18
DEEEHELQEAIEILKHDIETGNWERFVKRADPHARIRFNGRDLHGWERMKEVFEHVSKEFQNQKVEFETEHYFDGRVEVIVNIRIGDKNIHMRIISDKINGQWITREVRFH | 1.41
REEEEHAHRIFEILVRLWLTGDEDTYLNLADPHDLIEIDQGDKRDENHGRESAFHLWEWFLREMRIKRMILRDERVQGEKLEFDVEVRGNINGVDLRFRVHIIIVVINGRFKSSKVILN | 0.759
SELERDAEMAFKIYKHNIETGNEEELDKLVDPNVRLEAENHSTHGREDWYNLMRHFGVKHTDVKDFRIQGDKIHLHGVLHFNGRTFKITLYVHKFDGRWHIKSVEVH | 0.364
